Experiment [1] concerns the target CitAGacS649 (chimeric protein: GacS649 with its PDC domain replaced by the PDC domain of CitA from Klebsiella pneumoniae, C-terminal octa-histidine tag) (Pseudomonas aeruginosa | Klebsiella pneumoniae) (UniProt P52687). The experiment is described as follows: MST; CitAGacS649 labelled with AlexaFluor 488 at 80 nM, RetSHK titrated from 140 uM to 1.06 nM, 37 °C, 0.007% DDM, with 10 mM sodium citrate.

The target is the same in experiment [2]. The experiment is described as follows: MST; GacS649 or CitAGacS649 labelled with AlexaFluor 488 at 80 nM, RetSHK titrated from 140 uM to 1.06 nM, 37 °C, 0.007% DDM, no citrate; apparent constants.
For experiment [3], the target named is GacS649 (GacS residues 1-649 with C-terminal octa-histidine tag) (Pseudomonas aeruginosa). The description is as above.

B1: RetSHK (histidine kinase region of the sensor histidine kinase RetS, residues 413-649) (domain or fragment)
chain: QTKAEFLAKISHEIRTPMNGVLGMTELLLGTPLSAKQRDYVQTIHSAGNELLTLINEILDISKLESGQIELDEVQFDLNALIEDCLDIFRVKAEQQRIELISFTQPQVPRVIGGDPTRLRQVVLSLLDNAFKQTEEGEILLVVALDDQGETPRLRIAVQDSGHPFDAKEREALLTAELHSGDFLSASKLGSHLGLIIARQLVRLMGGEFGIQSGSSQGTTLSLTLPLDPQQLENPTA
Molecule B1 yielded a fold decrease in affinity with 10 mM citrate against no citrate in experiment [1] of 5 fold. The Kd in experiment [2] and in experiment [3] was 10 µM throughout.
